{"source": "paper doi:10.1101/2025.05.13.653593", "about": "(bioRxiv, 2025)", "binders": {"B1": {"name": "recombinant human GSDMD protein (natural protein, UniProt P57764 1-484, looked up)", "chain": "MGSAFERVVRRVVQELDHGGEFIPVTSLQSSTGFQPYCLVVRKPSSSWFWKPRYKCVNLSIKDILEPDAAEPDVQRGRSFHFYDAMDGQIQGSVELAAPGQAKIAGGAAVSDSSSTSMNVYSLSVDPNTWQTLLHERHLRQPEHKVLQQLRSRGDNVYVVTEVLQTQKEVEVTRTHKREGSGRFSLPGATCLQGEGQGHLSQKKTVTIPSGSTLAFRVAQLVIDSDLDVLLFPDKKQRTFQPPATGHKRSTSEGAWPQLPSGLSMMRCLHNFLTDGVPAEGAFTEDFQGLRAEVETISKELELLDRELCQLLLEGLEGVLRDQLALRALEEALEQGQSLGPVEPLDGPAGAVLECLVLSSGMLVPELAIPVVYLLGALTMLSETQHKLLAEALESQTLLGPLELVGSLLEQSAPWQERSTMSLPPGLLGNSWGEGAPAWVLLDECGLELGEDTPHVCWEPQAQGRMCALYASLALLSGLSQEPH", "notes": "also called gasdermin D; recombinant GSDMD"}}, "target": "T1, EccB5 (encoded by the Rv1782c gene), spotted on the Mtb proteome microarray (Mycobacterium tuberculosis, UniProt P9WNQ9 1-506)", "T1 sequence": "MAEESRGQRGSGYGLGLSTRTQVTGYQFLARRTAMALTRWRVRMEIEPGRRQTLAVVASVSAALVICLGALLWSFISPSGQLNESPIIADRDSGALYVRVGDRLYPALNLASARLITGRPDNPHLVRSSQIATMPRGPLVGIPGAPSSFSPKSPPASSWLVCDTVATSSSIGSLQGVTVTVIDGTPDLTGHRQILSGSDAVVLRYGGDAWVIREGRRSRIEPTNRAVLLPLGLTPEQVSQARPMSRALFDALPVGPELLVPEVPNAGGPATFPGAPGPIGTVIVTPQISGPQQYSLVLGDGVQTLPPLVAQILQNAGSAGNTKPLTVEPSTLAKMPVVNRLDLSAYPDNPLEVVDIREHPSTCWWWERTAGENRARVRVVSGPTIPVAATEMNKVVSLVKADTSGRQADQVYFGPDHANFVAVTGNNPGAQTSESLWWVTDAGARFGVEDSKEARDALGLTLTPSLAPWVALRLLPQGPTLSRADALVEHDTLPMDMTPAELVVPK", "assay": "peptide or protein array", "settings": "both partners purified", "data": [{"binder": "B1", "values": [{"measurement": "binding result", "value": "binds"}]}]}
